{"source": "paper PMC5227068", "binders": {"B1": {"name": "P. reichenowi var85 CIDRα5 (domain or fragment)", "chain": "PECGVVRNGGTFQKNDEKEGDCSGKNEEYKPPEGVTEHDINFLYSGEGHEDMTKKLSGFCKKPEDKKGTRNEQWKCYYEKAENNMCKMTNKGANDNEHAKMMSFNDFFNFWVSHLLTDTINWRKELNRCIKASKSETCEKKCNKNCKCFQKWIEKKKVEWEEVKDQYDEQKDMDIFNPYWILEYDLEEQLLPIMEKNNSDLELIGKMKEIIGKNYKNKELKRTDVNAIDILLKHELKDATTCVENDPQENC", "modifications": "not checked"}}, "key": {"[1]": {"target": "recombinant human CD36 (human), P16671", "sequence (P16671 whole entry, the tested form may be a part)": "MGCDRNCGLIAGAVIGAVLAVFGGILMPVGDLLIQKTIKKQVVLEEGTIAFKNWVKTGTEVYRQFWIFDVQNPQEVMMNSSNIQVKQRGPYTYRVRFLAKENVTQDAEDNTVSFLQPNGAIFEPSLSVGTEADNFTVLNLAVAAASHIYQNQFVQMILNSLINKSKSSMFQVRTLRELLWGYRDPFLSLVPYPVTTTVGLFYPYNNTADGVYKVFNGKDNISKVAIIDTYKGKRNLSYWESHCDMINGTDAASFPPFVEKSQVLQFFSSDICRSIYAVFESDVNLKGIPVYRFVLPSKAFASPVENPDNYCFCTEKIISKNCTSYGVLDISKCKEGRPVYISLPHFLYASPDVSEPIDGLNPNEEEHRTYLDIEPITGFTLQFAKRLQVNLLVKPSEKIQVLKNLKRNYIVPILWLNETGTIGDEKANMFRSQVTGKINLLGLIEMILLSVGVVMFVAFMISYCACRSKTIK", "assay": "BLI; Octet Qke; hisCD36 immobilised on Ni-NTA biosensors, CIDR domains in solution; kinetics buffer (PBS, 0.02% Tween-20, 100 μg/ml bovine serum albumin, 0.005% sodium azide); association 600 or 900 s, dissociation 300 to 600 s; 1:1 fit"}, "[2]": {"target": "recombinant human CD36 (human), P16671", "assay": "BLI; Octet Qke; hisCD36 immobilised on Ni-NTA biosensors, CIDR domain in kinetics buffer (PBS, 0.02% Tween-20, 100 ug/ml BSA, 0.005% sodium azide); association 600 or 900 s, dissociation 300 to 600 s; double-reference subtracted data fitted to a 1:1 binding model"}}}
{"binder": "B1", "values": [{"measurement": "Kd", "setting": "[1]", "result": 1.7, "unit": "nM"}, {"measurement": "koff", "setting": "[2]", "result": "3.42e-05", "unit": "s⁻¹"}, {"measurement": "kon", "setting": "[2]", "result": 19800, "unit": "M⁻¹ s⁻¹"}]}
